From article PMC5087487, “A Graphene Oxide-Based Fluorescent Method for the Detection of Human Chorionic Gonadotropin” (Sensors (Basel, Switzerland), 2016)
Ends that are not written are not given here. * marks the point of attachment. FITC = O=C1OC2(c3ccc(O)cc3Oc3cc(O)ccc32)c2ccc(NC(=S)*)cc21

Biological target: T1, Human chorionic gonadotropin (human, UniProt P01215 25-116; P0DN86 21-165)
T1 construct: glycoprotein hormones alpha chain of human chorionic gonadotropin; beta subunit of human chorionic gonadotropin; Glycoprotein hormone; also called hCG; source: bought: Sigma-Aldrich
Assay: other fluorescence titration; 50 nM FITC-peptide first adsorbed on graphene oxide (2 ug/mL, 10 min, fluorescence quenched); protein added, 15 min at room temperature, PBS 20 mM pH 7.2; recovery of fluorescence (excitation 470 nm, emission 518 nm) on release of the peptide from GO
Settings: both partners purified

T1 sequence (P01215 25-116, chain 1 of 2, other chains not shown): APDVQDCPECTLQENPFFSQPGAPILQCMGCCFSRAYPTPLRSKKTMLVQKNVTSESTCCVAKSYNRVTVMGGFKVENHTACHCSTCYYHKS

binding result: binds
B1: FITC-labeled hCG-specific binding peptide aptamer FITC-PPLRINRHILTR (peptide)
peptide: {FITC}-PPLRINRHILTR
notes: In the assay the peptide was first adsorbed onto graphene oxide (GO); also called peptide probe; source: synthetic peptide; bought: Synpeptide Co., Ltd
